The text below walks through data of US6475768B1 (Forskarpatent I Syd AB, priority 2000, dated 2002).

In data set [1] the target is Thermus thermophilus xylose isomerase (xylA), mutant 1010 (M1010) (Thermus thermophilus, UniProt P26997). The format is biochemical. To be noted: mutant 1010, crude enzyme, 10 mM MnCl2, pH 7.0. How it is done: (§1) The cells were harvested by centrifugation in the stationary phase of growth and washed once with ice cold distilled water. Washed cells were resusprended in 100 mM triethanolamine, pH 7.0, 0.5 mg/ml lysozyme (130000 U/mg), 0.25 mg/ml DNase, and 1 mM phenylmethylsulphonyl fluoride (PMSF) in dimethylsulfoxide (DMSO). The suspensions were kept at room temperature for one hour and then on ice for two hours before being put in a freezer at −20° C. The cell lysates were thawed on ice, cell debris was removed by centrifugation (1300 rpm for 15 minutes at 4° C.) and the supernatants were used as the crude enzyme preparations.
(§2) Protein concentration was determined with the Bradford method (Bradford (1976)) using the Pierce protein reagent with bovine serum albumin as standard.
(§3) The reaction was terminated after 10 minutes by adding 150 μl 50% trichloroaceticacid. The reaction mixture was neutralized with 185 μl 2 M Na2CO3. The formed xylulose or fructose was measured on a COBAS MIRA (Roche) automated spectrophotometer via enzymatic reduction with 0.04 or 0.5 units of Sorbitol Dehydrogenase (purchased from Roche), respectively in the presence of 0.15 mM NADH at pH 7.0, 37° C. in 200 μl reaction volume. The rate of disappearance of NADH was followed at 340 nm and the concentration of D-xylulose or D-fructose was calculated using calibration curves. […] The specific activity (U min^−1 mg^−1) was determined from the activity and the protein concentration of the crude enzyme preparations.
(§4) The kinetic parameters Vmax (μmol min^−1 mg^−1) and Km (mM) were determined from Michaelis-Menten plots of specific activities at various substrate concentrations by nonlinear regression analysis with Sigma Plot (SSPS Inc.) software. Typically, duplicate measurements were used to determine the Km value at 6-10 concentrations of the substrate, with a concentration range covering the value of Km.

Data set [2] addresses T1, Thermus thermophilus xylose isomerase (xylA), mutant 1024 (M1024) (Thermus thermophilus, UniProt P26997, E372G/F163L).
T1 construct: made in house; host or cells: E. coli HB101 (crude lysate)
T1 sequence (P26997 1-387 F163L/E372G): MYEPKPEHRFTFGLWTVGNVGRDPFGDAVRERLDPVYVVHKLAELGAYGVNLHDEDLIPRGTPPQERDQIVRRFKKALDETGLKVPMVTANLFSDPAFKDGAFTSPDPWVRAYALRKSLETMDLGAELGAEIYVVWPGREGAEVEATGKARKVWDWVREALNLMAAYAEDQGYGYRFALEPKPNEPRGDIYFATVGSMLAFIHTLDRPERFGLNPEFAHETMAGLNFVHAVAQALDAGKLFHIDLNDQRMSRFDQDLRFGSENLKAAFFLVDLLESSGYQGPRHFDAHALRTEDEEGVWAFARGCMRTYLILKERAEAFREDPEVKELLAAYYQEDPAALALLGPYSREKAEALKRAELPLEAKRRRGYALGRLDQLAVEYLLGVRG
Kind of data set: Kinetic characterisation of mutant xylose isomerase 1024 (xylose/glucose isomerase activity, xylitol inhibition). The format is biochemical. The note with it: mutant 1024, crude enzyme, 10 mM MnCl2, pH 7.0. How it is done:
as §1, §2
(§5) The reaction was terminated after 10 minutes by adding 150 μl 50% trichloroaceticacid. The reaction mixture was neutralized with 185 μl 2 M Na2CO3. The formed xylulose or fructose was measured on a COBAS MIRA (Roche) automated spectrophotometer via enzymatic reduction with 0.04 or 0.5 units of Sorbitol Dehydrogenase (purchased from Roche), respectively in the presence of 0.15 mM NADH at pH 7.0, 37° C. in 200 μl reaction volume. The rate of disappearance of NADH was followed at 340 nm and the concentration of D-xylulose or D-fructose was calculated using calibration curves. […]

Data set [3] addresses T2, Thermus thermophilus xylose isomerase (xylA), mutant 1026 (M1026) (Thermus thermophilus, UniProt P26997, E372G).
T2 construct: made in house; host or cells: E. coli HB101 (crude lysate)
T2 sequence (P26997 1-387 E372G): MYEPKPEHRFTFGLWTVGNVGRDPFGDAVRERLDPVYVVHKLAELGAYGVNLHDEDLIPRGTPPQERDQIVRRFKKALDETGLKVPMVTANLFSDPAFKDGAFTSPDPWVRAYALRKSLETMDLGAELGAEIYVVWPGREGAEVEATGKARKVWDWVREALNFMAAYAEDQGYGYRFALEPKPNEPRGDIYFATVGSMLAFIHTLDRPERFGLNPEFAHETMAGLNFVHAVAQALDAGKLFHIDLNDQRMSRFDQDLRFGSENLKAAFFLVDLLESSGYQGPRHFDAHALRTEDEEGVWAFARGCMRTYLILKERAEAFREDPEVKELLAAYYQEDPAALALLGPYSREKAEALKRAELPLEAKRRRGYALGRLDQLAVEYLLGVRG
The data set can be described thus: Kinetic characterisation of mutant xylose isomerase 1026 (xylose/glucose isomerase activity, xylitol inhibition). The note with it: mutant 1026, crude enzyme, 10 mM MnCl2, pH 7.0. The format is biochemical. The protocol:
as §1, §2, §5

Data set [4] has as its target T3, Thermus thermophilus xylose isomerase, wild type (nucleic acid sequence SEQ ID NO: 2) (Thermus thermophilus, UniProt P26997).
T3 sequence (P26997 1-387): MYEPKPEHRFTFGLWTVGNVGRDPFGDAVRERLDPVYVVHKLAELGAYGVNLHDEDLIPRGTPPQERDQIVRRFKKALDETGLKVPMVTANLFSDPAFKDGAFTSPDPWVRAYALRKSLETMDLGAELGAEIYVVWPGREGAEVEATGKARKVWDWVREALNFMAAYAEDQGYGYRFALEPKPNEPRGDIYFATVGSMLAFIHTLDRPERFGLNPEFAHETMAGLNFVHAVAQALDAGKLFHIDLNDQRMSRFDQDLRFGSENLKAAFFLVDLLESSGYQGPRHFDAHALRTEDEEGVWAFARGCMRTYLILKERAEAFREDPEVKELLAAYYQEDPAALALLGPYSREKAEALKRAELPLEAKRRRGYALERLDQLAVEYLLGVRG
The note with it: crude enzyme, 10 mM MnCl2, pH 7.0.

Substrate in data set [5]: OC1OC[C@@H](O)[C@H](O)[C@H]1O
The data set can be described thus: cells, lysate or membranes named. The data set is classed as biochemical, Thermus thermophilus. The note with it: 10 mM MnCl2, pH 7.0. The protocol: as §1, §2
as §3, with “preparations. […] The temperature optimum for the mutants were roughly the same as for the wild type enzyme except for mutant 1021, which had ˜10° C. lower temperature optimum.” for “preparations.”
as §4

Substrate in data set [6]: OC[C@H]1OC(O)[C@H](O)[C@@H](O)[C@@H]1O
The data set can be described thus: cells, lysate or membranes named. The data set is classed as biochemical, Thermus thermophilus. To be noted: other: mutant 1021, crude enzyme, 10 mM MnCl2, pH 7.0. How it is done:
as §1, §2
as §3, with “preparations. […] The temperature optimum for the mutants were roughly the same as for the wild type enzyme except for mutant 1021, which had ˜10° C. lower temperature optimum.” for “preparations.”
as §4

The nature of data set [7]: Xylose isomerase activity assay of crude enzyme preparations from E. coli HB101. The data set is classed as biochemical. The protocol:
The cells were harvested by centrifugation in the stationary phase of growth and washed once with ice cold distilled water. […] The suspensions were kept at room temperature for one hour and then on ice for two hours before being put in a freezer at −20° C. The cell lysates were thawed on ice, cell debris was removed by centrifugation (1300 rpm for 15 minutes at 4° C.) and the supernatants were used as the crude enzyme preparations. Protein concentration was determined with the Bradford method (Bradford (1976)) using the Pierce protein reagent with bovine serum albumin as standard. […] The reaction mixture was neutralized with 185 μl 2 M Na2CO3. […] The rate of disappearance of NADH was followed at 340 nm and the concentration of D-xylulose or D-fructose was calculated using calibration curves. […] The specific activity (U min^−1 mg^−1) was determined from the activity and the protein concentration of the crude enzyme preparations.

Data set [8] is described as follows: Effect of pH on the activity of the enzymes. The data set is classed as biochemical. The note with it: 60° C., 700 mM D-xylose, 10 mM MnCl2, pH range 5-10. How it is done: The effect of pH on the activity of the enzymes was followed in the pH range 5-10 in a buffer prepared by mixing acetate, piperazine-N,N'-bis-(2-ethanolsulphonic acid) (PIPES), […] (HEPES) and glycine at final concentration 50 mM each as described by (Dekker at al. (1992) Appl. Mirobiol. Biotechnol. 36: 727-732). The pH was adjusted at 60° C. with NaOH.

The nature of data set [9]: Effect of different bivalent cations on the activity of EDTA treated enzymes. The format is biochemical. To be noted: EDTA treated enzyme, activity with 10 mM MnCl2 at 60° C. set to 100%. The protocol:
Furthermore, the effect of different bivalent cations (10 mM) on the activity of EDTA treated enzymes was investigated. The specific activity with 10 mM MnCl2 at 60° C. was set to 100% for each enzyme.

Substrate in data set [10]: OC1OC[C@@H](O)[C@H](O)[C@H]1O
The data set can be described thus: cells, lysate or membranes named. To be noted: other: wild type, crude enzyme, 10 mM MnCl2, pH 7.0.

The conditions of data set [11]: cited from earlier work.
Setting [12] is: other: mutant 1021, crude enzyme.
Where [13] appears, read: other: mutant 1024, crude enzyme.

The term Km denotes the concentration of substrate that gives half-maximal velocity. Regarding `OC1OC[C@@H](O)[C@H](O)[C@H]1O` (stereo partly drawn) [xylose, D-xylose], the Vmax xylose in data set [1] was found to be 0.44 µmol/min/mg. Also, the Km in data set [1] (read-out: Km xylose) worked out at 16.6 ± 2.2 mM.
Consider `OC[C@H]1OC(O)[C@H](O)[C@@H](O)[C@@H]1O` (some centres unmarked) [glucose], for which the Vmax glucose in [1] was 0.0034 µmol/min/mg; in data set [2], 0.54 µmol/min/mg; in data set [3] it was 0.18 µmol/min/mg; in [4], 0.015 µmol/min/mg.

B1: Thermus thermophilus xylose isomerase (xylA), mutant 1021 (M1021) (Thermus thermophilus HB8; E372G/V379A) (protein)
chain: MYEPKPEHRFTFGLWTVGNVGRDPFGDAVRERLDPVYVVHKLAELGAYGVNLHDEDLIPRGTPPQERDQIVRRFKKALDETGLKVPMVTANLFSDPAFKDGAFTSPDPWVRAYALRKSLETMDLGAELGAEIYVVWPGREGAEVEATGKARKVWDWVREALNFMAAYAEDQGYGYRFALEPKPNEPRGDIYFATVGSMLAFIHTLDRPERFGLNPEFAHETMAGLNFVHAVAQALDAGKLFHIDLNDQRMSRFDQDLRFGSENLKAAFFLVDLLESSGYQGPRHFDAHALRTEDEEGVWAFARGCMRTYLILKERAEAFREDPEVKELLAAYYQEDPAALALLGPYSREKAEALKRAELPLEAKRRRGYALGRLDQLAAEYLLGVRG
notes: made in house; host or cells: E. coli HB101 (crude lysate)
Consider B1, for which the values for the Michaelis-Menten constant (Km) in data set [5] (setting [12]) and in [6] were 25.1 ± 4.0 mM and 52.0 ± 4.9 mM, respectively. For the same molecule, the Vmax amounted to 0.84 µmol/min/mg in data set [5] (setting [12]) and 0.13 µmol/min/mg in data set [6].

B2: Thermus thermophilus xylose isomerase (xylA), mutant 1024 (M1024) (Thermus thermophilus HB8; E372G/F163L) (protein)
chain: MYEPKPEHRFTFGLWTVGNVGRDPFGDAVRERLDPVYVVHKLAELGAYGVNLHDEDLIPRGTPPQERDQIVRRFKKALDETGLKVPMVTANLFSDPAFKDGAFTSPDPWVRAYALRKSLETMDLGAELGAEIYVVWPGREGAEVEATGKARKVWDWVREALNLMAAYAEDQGYGYRFALEPKPNEPRGDIYFATVGSMLAFIHTLDRPERFGLNPEFAHETMAGLNFVHAVAQALDAGKLFHIDLNDQRMSRFDQDLRFGSENLKAAFFLVDLLESSGYQGPRHFDAHALRTEDEEGVWAFARGCMRTYLILKERAEAFREDPEVKELLAAYYQEDPAALALLGPYSREKAEALKRAELPLEAKRRRGYALGRLDQLAVEYLLGVRG
notes: as for B1
For B2, in [5] (setting [13]), the Km was found to be 89.4 ± 8.4 mM and the Vmax was 3.08 µmol/min/mg.

B3: Thermus thermophilus xylose isomerase, wild type (nucleic acid sequence SEQ ID NO: 2) (Thermus thermophilus HB8) (protein)
chain: MYEPKPEHRFTFGLWTVGNVGRDPFGDAVRERLDPVYVVHKLAELGAYGVNLHDEDLIPRGTPPQERDQIVRRFKKALDETGLKVPMVTANLFSDPAFKDGAFTSPDPWVRAYALRKSLETMDLGAELGAEIYVVWPGREGAEVEATGKARKVWDWVREALNFMAAYAEDQGYGYRFALEPKPNEPRGDIYFATVGSMLAFIHTLDRPERFGLNPEFAHETMAGLNFVHAVAQALDAGKLFHIDLNDQRMSRFDQDLRFGSENLKAAFFLVDLLESSGYQGPRHFDAHALRTEDEEGVWAFARGCMRTYLILKERAEAFREDPEVKELLAAYYQEDPAALALLGPYSREKAEALKRAELPLEAKRRRGYALERLDQLAVEYLLGVRG
Regarding B3, the “Vmax at 30° C.” value in [7] (30° C., 700 mM D-xylose, 10 mM MnCl2, pH 7.0, crude enzyme) was 0.014 μmol/min^−1mg^−1. Besides, the Temp. optimum in [7] (xylose as substrate, pH 7.0) worked out at 85 °C. For the same molecule, the pH optimum in data set [8] is on record as 6-7.5. Besides, in data set [9] (10 mM Co2+), the “Co^2+ (% relative activity)” value turned out to be 87.9%. Also, in data set [9] (10 mM Mg2+), the “Mg^2+ (% relative activity)” value was 73.8%. In addition, in data set [10], the Km worked out at 3.44 ± 0.4 mM and the Vmax was found to be 0.043 µmol/min/mg. In addition, in data set [11], the “activity at 30° C.” value is “only trace activity”.
